The source of these data is paper PMC2760636 (The Journal of urology, 2009).

For test [1], the system named is men with chronic prostatitis/chronic pelvic pain syndrome. The settings on record: CP/CPPS; cited from earlier work.
Test [2] deals with CD4 and CD8 T cells from men with GP. The settings on record: men with granulomatous prostatitis; cited from earlier work.
Test [3] relates to CD4 lymphocytes. The settings on record: CP/CPPS; cited from earlier work.
In test [4] the target is HLA-DR DRB1*1101 (human). The test is described as follows: radioligand binding.
Test [5] has as its target HLA-DR DRB1*1302 (human). The test is described as follows: radioligand binding.
In test [6] the target is HLA-DR DRB1*0401 (human). Nature of the test: radioligand binding.
Test [7] concerns the target HLA-DR DRB1*0404 (human). The test is described as follows: radioligand binding.
In test [8] the target is HLA-DR DRB1*0901 (human). Nature of the test: radioligand binding.
Test [9] deals with HLA-DR DRB1*1501 (human). Nature of the test: radioligand binding.
For test [10], the target named is HLA-DR DRB1*0301 (human). The test is described as follows: radioligand binding.
In test [11] the target is HLA-DR DRB5*0101 (human). The test is described as follows: radioligand binding.
The target in test [12] is HLA-DR DRB4*0101 (human). Nature of the test: radioligand binding.
Test [13] deals with HLA-DR DRB1*0405 (human). The test is described as follows: radioligand binding.
In test [14] the target is HLA-DR DRB1*0101 (human). Nature of the test: radioligand binding.
The target of test [15] is HLA-DR DRB1*0701 (human). The test is described as follows: radioligand binding.
For test [16], the target named is HLA-DR DRB1*0802 (human). The test is described as follows: radioligand binding.

As for `O=C(O)c1cn(C2CC2)c2cc(N3CCNCC3)c(F)cc2c1=O` [ciprofloxacin], in test [1], the “improvement of symptoms versus placebo (in words)” value was “no more effective than placebo at improving symptoms”.
In the case of “PSA: prostate specific antigen, normal self prostatic protein”, the “recognition by CD4 and CD8 T cells in GP (in words)” value in [2] was “CD4 and CD8 T cells from men with GP can recognize PSA”. Moreover, in test [3], the “recognition by CD4 lymphocytes (in words)” value is “can be recognized by CD4 lymphocytes”.
In the case of PSA_(171-190) (peptide), the IC50 in test [4] is more than 20000 nM; in test [5], 997 nM; in test [6], 117 nM; in test [7], 219 nM; in test [8], more than 20000 nM; in test [9], 351 nM. The IC50 in [10] is 961 nM; in [11], more than 20000 nM; in test [12], 880 nM; in test [13], 719 nM.
In the case of PSA_(221-240) (peptide), the concentration for half-maximal inhibition (IC50) is 108 nM in test [14]; more than 20000 nM in test [5]; 93 nM in [6]; 3.3 nM in test [7]; 428 nM in test [15]; 786 nM in test [8]. Besides, the IC50 is 25 nM in test [9], more than 20000 nM in test [10], 646 nM in test [16] and 67 nM in test [13].
As for KSEEFQKRLHPYKDFIATLG [PAP_(173-192)], the IC50 in [4] is 28 nM; in [14], 25 nM; in [5], more than 20000 nM; in test [6], 296 nM; in test [7], 374 nM; in [15], 132 nM. In addition, the IC50 in test [8] was 93 nM; in test [9], 4 nM; in test [10] it was more than 20000 nM; in [11], 24 nM; in test [13], 211 nM.
For NPILLWQPIPVHTVPLSEDQ [PAP_(133-152)], the concentration for half-maximal inhibition (IC50) in test [4] was found to be 964 nM; in test [14], 25 nM; in [5], 339 nM; in test [6] it was 39 nM; in test [7], 28 nM; in test [9] it was 1.5 nM. For the same molecule, the IC50 was more than 20000 nM in [10], 82 nM in test [12] and 164 nM in test [13].

Broadly, the IC50 is the point on the concentration scale where inhibition reaches its midpoint. Read a low IC50 as greater potency in that assay.
